Data: patent US12297265B2, “Antibody and use thereof” (SICHUAN KELUN-BIOTECH BIOPHARMACEUTICAL CO., LTD., priority 2018, dated 2025)

Target: human Claudin18.2 (Homo sapiens, UniProt P56856)
Assay: Cellular ELISA on L929-Claudin 18.2 cells
Format: binding
Parameters: expressed in transfected cells; host or cells: L929, infected with pLVX-IRES-puro lentivirus, puromycin-selected monoclonal line; cells were formaldehyde-fixed for the cellular ELISA
Conditions: Table 10 experiment
Protocol: Human Claudin18.2 is a four transmembrane protein and has a complex structure. Cellular ELISA was thus carried out to maintain the structure of Claudin18.2. The stable cell line L929-Claudin 18.2 constructed in Example 1 were used for detection. Specifically, L929-Claudin 18.2 adherent cells were detached by 2 mM EDTA treatment. The cells were resuspended and adjusted to 2×10^5/mL and 100 μL of the resuspension was plated into 96 well plate and incubated overnight at 37° C. The next day, the media was removed, and the plate was washed with PBS once. 100 μL/well 4% formaldehyde was added to the plate. After 30 min of incubation at room temperature, formaldehyde was removed, followed by washing twice with PBS. Blocking buffer (PBS containing 2% BSA) was then added to the plate at 100 μL/well, and incubated at 37° C. for 2 h. After removal of blocking buffer, 100 μL/well of serially diluted antibodies (starting from 1 μM, with 4-fold dilution, for a total of 11 concentrations) were added to the corresponding wells, which were incubated at 37° C. for 2h afterwards. The plate was washed with 250 μL PBST for 5 times, and was allowed to stand for 2 min each time. 100 μL/well of horseradish peroxidase labeled anti-Human IgG secondary antibody (HRP-anti-Human IgG, Jackson ImmunoResearch, 109-035-003) diluted 1:10000 in PBS (containing 2% BSA) was added to the plate. The plate was incubated at 37° C. for 1 h and washed with 250 μL PB ST 6 times, wherein the plate was allowed to stand for 2 min each time. 100 μL/well of TMB solution (Thermo, 34029) was added. The reactions were incubated at 37° C. for 20 min and stopped with 50 μL 2 mol/L H2504. The absorbance at 450 nm was read on a plate reader (MD, SpectraMax M2) and the results were subjected to curve fitting by Graphpad Prism.

- Max Signal Value (OD450): 0.8 OD450
B1: 2C6.9-hz11: humanized antibody of 2C6.9; VH SEQ ID NO: 39, VL SEQ ID NO: 41 (antibody, V domains shown)
VH: QVQLQESGPGLVKPSETLSLTCTVSGFSLTRYGVSWIRQPPGKGLEWIGVIWGDGNTNYNPSLKSRVTISKDSSKSQVSLKLSSVTAADTAVYYCARVNFGNALDYWGQGTLVTVSS
VL: DIVMTQSPDSLAVSLGERATINCKSSQSLLNSGNQKNYLTWYQQKPGQPPKLLIYWASTRDSGVPDRFSGSGSGTDFTLTISSLQAEDVAVYYCQNDFIFPLTFGGGTKVEIK
modifications: Heavy chain variable region of humanized antibody 2C6.9hz11; light chain variable region of humanized antibody 2C6.9hz11/2C6.9hz21
